What was measured:
ACE2 receptor [1] = molecular target: ACE2 receptor (UniProt Q9BYF1); assay: ELISA; competitive ELISA of ACE2 binding; AH-adsorbed DCFHP incubated overnight at 40 °C, against a reference freshly adsorbed to AH
ACE2 receptor [2] = molecular target: ACE2 receptor (UniProt Q9BYF1); assay: ELISA; competitive ELISA of ACE2 binding; DCFHP samples (in solution, or with AH and 0, 20 or 200 mM sodium phosphate) stored at 4 °C (3-21 days, 1 month, or up to 4 weeks) before the assay
ACE2 receptor [3] = molecular target: ACE2 receptor (UniProt Q9BYF1); assay: ELISA; competitive ELISA of ACE2 binding; AH-adsorbed DCFHP incubated overnight at 50 °C, against a reference freshly adsorbed to AH
ACE2 receptor [4] = molecular target: ACE2 receptor (UniProt Q9BYF1); assay: ELISA; competitive ELISA of ACE2 binding; DCFHP at 50 mcg/mL in 20 mM Tris, 150 mM NaCl, 5% Sucrose, pH 7.5, in solution or adsorbed to 1.5 mg/mL Alhydrogel (AH); time zero or freshly adsorbed; read against a DCFHP reference sample; who was immobilised is told only in the Supplemental methods

Sequence of UniProt Q9BYF1 (Q9BYF1 18-740 limits assumed): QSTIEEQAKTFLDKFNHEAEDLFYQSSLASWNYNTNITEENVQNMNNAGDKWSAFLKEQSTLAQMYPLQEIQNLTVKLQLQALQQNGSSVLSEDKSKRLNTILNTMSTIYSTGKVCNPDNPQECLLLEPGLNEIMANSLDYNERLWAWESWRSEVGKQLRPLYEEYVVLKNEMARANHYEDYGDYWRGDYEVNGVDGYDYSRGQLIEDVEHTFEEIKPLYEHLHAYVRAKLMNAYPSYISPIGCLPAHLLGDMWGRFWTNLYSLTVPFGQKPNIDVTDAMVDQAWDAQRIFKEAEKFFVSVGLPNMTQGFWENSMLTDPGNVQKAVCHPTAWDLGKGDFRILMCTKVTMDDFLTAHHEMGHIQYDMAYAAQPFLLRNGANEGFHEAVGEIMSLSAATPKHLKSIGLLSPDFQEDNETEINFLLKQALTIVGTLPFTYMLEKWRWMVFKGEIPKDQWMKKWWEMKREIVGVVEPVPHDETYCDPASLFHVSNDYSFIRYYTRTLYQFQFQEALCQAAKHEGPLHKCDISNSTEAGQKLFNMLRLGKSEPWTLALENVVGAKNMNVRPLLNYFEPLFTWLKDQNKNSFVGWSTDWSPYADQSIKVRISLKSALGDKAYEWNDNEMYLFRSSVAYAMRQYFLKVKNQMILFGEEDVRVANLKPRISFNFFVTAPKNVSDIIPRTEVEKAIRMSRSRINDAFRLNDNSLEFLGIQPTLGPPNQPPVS

Delta-C70-Ferritin-HexaPro (DCFHP), SARS-CoV-2 spike ferritin nanoparticle vaccine antigen, produced in Expi293 cells
loss of ACE2 binding after overnight at 40 °C (ACE2 receptor [1]): 60% | native antigen by ACE2 competitive ELISA after 1 month at 4 °C, AH with 0 mM phosphate (ACE2 receptor [2]): 80 µg | native antigen by ACE2 competitive ELISA after 1 month at 4 °C, AH with 200 mM phosphate (ACE2 receptor [2]): 50 µg | native antigen concentration by ACE2 competitive ELISA (target 50 mcg/mL), AH-adsorbed, stored at 4 °C for 3-21 days (ACE2 receptor [2]): 75 µg/mL | loss of ACE2 binding after overnight at 50 °C (ACE2 receptor [3]): 80% | native antigen concentration by ACE2 competitive ELISA (target 50 mcg/mL), freshly adsorbed to AH, time zero (ACE2 receptor [4]): 48 µg/mL

From article PMC11181998
